Test results as given in patent US20170224836A1 (Novartis, published 2017).
Where two headings read alike, the source gives them in different places.

T1: CDH6 wt (human, UniProt P55285 54-615)
T1 sequence: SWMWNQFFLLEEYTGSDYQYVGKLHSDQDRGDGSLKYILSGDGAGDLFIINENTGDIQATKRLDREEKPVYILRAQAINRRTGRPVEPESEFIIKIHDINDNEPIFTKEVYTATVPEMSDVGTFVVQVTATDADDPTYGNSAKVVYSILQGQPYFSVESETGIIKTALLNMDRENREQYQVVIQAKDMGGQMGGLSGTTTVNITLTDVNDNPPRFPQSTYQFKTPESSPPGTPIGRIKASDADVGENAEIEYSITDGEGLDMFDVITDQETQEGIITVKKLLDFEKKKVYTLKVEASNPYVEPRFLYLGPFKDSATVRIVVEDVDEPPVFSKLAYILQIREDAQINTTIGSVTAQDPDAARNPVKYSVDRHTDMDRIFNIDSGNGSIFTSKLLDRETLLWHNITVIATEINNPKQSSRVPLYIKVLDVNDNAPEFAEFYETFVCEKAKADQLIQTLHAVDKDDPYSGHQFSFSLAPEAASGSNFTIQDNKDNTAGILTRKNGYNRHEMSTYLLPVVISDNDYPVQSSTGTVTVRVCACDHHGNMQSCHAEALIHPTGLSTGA

T2: hCDH6aa54-615 APPavi (human, UniProt P55285 54-615)
T2 sequence: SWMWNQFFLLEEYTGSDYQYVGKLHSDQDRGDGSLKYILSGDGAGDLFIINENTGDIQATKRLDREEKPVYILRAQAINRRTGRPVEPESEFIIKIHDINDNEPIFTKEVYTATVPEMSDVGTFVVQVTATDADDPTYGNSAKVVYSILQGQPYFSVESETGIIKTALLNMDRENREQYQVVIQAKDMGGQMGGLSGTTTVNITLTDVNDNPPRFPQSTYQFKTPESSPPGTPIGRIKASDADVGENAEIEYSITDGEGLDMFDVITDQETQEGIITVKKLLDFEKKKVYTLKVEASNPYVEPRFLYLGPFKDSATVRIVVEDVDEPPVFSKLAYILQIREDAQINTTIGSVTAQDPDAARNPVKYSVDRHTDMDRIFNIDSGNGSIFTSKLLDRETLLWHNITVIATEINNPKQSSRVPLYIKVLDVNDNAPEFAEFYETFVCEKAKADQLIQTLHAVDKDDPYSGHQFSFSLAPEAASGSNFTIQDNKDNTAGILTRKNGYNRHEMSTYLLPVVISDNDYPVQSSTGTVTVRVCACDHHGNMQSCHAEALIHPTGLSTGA

T3: human CDH6 on cells (human, UniProt P55285 54-790)
T3 sequence: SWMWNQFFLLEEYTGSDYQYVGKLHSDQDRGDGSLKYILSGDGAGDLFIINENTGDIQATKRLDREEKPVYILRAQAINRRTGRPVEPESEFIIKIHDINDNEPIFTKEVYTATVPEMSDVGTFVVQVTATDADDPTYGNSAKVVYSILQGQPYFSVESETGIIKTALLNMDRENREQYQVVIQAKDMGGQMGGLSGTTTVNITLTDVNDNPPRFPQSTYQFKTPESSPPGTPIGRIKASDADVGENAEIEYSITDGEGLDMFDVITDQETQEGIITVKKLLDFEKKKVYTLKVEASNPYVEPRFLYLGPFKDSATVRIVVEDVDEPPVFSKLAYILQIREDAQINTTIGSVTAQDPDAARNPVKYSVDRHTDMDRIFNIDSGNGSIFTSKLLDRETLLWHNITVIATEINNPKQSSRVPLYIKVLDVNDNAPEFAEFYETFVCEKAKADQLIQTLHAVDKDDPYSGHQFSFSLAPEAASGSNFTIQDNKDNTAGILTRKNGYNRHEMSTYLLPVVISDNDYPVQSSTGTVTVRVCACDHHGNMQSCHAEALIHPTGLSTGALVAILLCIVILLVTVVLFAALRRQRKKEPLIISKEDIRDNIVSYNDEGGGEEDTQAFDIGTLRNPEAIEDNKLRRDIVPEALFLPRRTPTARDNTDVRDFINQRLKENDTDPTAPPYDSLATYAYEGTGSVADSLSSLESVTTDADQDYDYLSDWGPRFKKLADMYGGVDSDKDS

T4: rat CDH6 on cells (rat, UniProt P55280 54-789)
T4 sequence (looked up): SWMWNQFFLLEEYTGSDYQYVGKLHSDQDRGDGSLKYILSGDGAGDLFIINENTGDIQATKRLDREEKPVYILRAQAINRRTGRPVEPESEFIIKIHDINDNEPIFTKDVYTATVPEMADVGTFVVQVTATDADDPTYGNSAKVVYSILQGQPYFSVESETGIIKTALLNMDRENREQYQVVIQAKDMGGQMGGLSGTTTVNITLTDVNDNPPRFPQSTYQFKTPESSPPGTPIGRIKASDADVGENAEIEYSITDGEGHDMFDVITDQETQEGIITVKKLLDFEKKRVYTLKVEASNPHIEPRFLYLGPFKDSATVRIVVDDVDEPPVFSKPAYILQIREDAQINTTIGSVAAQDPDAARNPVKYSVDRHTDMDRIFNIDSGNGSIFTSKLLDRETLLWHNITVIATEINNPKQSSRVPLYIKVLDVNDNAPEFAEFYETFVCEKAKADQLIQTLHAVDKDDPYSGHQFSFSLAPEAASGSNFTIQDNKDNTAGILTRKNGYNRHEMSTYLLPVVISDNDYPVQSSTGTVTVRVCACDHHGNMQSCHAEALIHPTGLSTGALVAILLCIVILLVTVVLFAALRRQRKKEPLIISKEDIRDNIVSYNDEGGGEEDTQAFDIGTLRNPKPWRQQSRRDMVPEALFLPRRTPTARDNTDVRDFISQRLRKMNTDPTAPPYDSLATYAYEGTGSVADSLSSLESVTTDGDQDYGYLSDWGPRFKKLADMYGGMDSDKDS

T5: cynomolgus CDH6 on cells (cynomolgus, UniProt A0A2K5TW62 54-790)
T5 sequence: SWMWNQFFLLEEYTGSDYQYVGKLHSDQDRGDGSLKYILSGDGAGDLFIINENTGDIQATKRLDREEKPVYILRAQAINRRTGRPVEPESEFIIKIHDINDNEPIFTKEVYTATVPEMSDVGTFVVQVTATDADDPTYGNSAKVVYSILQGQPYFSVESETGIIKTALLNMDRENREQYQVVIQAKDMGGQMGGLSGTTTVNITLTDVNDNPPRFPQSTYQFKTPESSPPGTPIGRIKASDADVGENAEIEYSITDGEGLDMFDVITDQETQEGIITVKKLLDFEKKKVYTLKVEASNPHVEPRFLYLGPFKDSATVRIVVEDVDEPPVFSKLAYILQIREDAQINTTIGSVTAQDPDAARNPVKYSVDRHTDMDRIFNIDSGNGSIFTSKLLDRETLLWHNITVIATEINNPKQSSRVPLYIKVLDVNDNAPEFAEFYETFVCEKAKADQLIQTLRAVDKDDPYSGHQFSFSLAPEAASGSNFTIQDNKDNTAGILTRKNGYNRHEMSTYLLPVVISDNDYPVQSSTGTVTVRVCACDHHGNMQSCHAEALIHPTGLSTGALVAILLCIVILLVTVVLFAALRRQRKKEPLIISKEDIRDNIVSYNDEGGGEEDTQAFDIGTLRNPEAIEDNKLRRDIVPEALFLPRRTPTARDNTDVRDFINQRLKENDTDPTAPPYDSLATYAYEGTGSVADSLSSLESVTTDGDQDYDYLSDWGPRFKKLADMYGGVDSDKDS

T6: mouse CDH6 on cells (mouse, UniProt P97326 54-790)
T6 sequence (looked up): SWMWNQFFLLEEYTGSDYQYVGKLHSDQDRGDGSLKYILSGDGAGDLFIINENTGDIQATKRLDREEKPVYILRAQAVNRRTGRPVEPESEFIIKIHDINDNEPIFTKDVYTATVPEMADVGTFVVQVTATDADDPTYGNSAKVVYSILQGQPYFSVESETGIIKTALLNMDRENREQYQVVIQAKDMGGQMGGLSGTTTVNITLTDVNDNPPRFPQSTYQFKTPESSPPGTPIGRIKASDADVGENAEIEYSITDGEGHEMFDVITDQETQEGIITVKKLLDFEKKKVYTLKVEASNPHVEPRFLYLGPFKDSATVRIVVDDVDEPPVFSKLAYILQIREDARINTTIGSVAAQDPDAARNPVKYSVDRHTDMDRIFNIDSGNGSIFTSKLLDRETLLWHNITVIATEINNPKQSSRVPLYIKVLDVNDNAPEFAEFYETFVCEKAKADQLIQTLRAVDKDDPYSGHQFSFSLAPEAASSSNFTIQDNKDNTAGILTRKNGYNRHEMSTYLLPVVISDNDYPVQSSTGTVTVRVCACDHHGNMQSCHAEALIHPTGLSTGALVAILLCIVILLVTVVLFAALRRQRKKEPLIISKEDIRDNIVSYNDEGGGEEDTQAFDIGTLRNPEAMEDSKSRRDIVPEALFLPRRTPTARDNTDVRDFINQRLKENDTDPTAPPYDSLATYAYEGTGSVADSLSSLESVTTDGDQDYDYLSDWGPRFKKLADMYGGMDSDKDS


Tests used:
CDH6 wt = target: T1, CDH6 wt; assay: ELISA on coated CDH6-wt
hCDH6aa54-615 APPavi [1] = target: T2, hCDH6aa54-615 APPavi; assay: SPR binning
hCDH6aa54-615 APPavi [2] = target: T2, hCDH6aa54-615 APPavi; assay: SPR binning; remark: listed apart in the source
hCDH6aa54-615 APPavi [3] = target: T2, hCDH6aa54-615 APPavi; assay: SPR binning; remark: listed apart in the source
hCDH6aa54-615 APPavi [4] = target: T2, hCDH6aa54-615 APPavi; assay: SPR binning; remark: listed apart in the source
hCDH6aa54-615 APPavi [5] = target: T2, hCDH6aa54-615 APPavi; assay: SPR binning; remark: listed apart in the source
hCDH6aa54-615 APPavi [6] = target: T2, hCDH6aa54-615 APPavi; assay: SPR binning; remark: listed apart in the source
hCDH6aa54-615 APPavi [7] = target: T2, hCDH6aa54-615 APPavi; assay: SPR binning; remark: listed apart in the source
human CDH6 on cells [8] = target: T3, human CDH6 on cells; assay: FACS on OVCAR3 cells
rat CDH6 on cells = target: T4, rat CDH6 on cells; assay: FACS on CHO-ratCDH6 cells
cynomolgus CDH6 on cells = target: T5, cynomolgus CDH6 on cells; assay: FACS on CHO-cynoCDH6 cells
mouse CDH6 on cells = target: T6, mouse CDH6 on cells; assay: FACS on CHO-mouseCDH6 cells
human CDH6 on cells [9] = target: T3, human CDH6 on cells; assay: FACS on OVCAR8-CDH6+ cells, EC50 [M] table
human CDH6 on cells [10] = target: T3, human CDH6 on cells; assay: FACS on CHO-TO-humanCDH6 cells plus tetracycline

EC50 (read off the curve) (CDH6 wt) | response of secondary antibody on primary antibody-CDH6 complex (hCDH6aa54-615 APPavi [1]) | response of secondary antibody on primary antibody-CDH6 complex (hCDH6aa54-615 APPavi [2]) | response of secondary antibody on primary antibody-CDH6 complex (hCDH6aa54-615 APPavi [3]) | response of secondary antibody on primary antibody-CDH6 complex (hCDH6aa54-615 APPavi [4]) | response of secondary antibody on primary antibody-CDH6 complex (hCDH6aa54-615 APPavi [5]) | response of secondary antibody on primary antibody-CDH6 complex (hCDH6aa54-615 APPavi [6]) | response of secondary antibody on primary antibody-CDH6 complex (hCDH6aa54-615 APPavi [7]) | EC50 (read off the curve) (human CDH6 on cells [8]) | EC50 (read off the curve) (rat CDH6 on cells) | EC50 (read off the curve) (cynomolgus CDH6 on cells) | EC50 (read off the curve) (mouse CDH6 on cells) | EC50 (human CDH6 on cells [9]) | EC50 (read off the curve) (human CDH6 on cells [10]) | Binder
~200 nM | 8.84 | -3.56 | -2.17 | 21.9 | 15 | 32.7 | 10.6 | – | – | – | – | – | – | NOV0710 (antibody, human IgG1, kappa, V domains shown) VH: QVQLLESGGGLVQPGGSLRLSCAASGFTFSSYAMSWVRQAPGKGLEWVSVIRSSGSSTYYADSVKGRFTISRDNSKNTLYLQMNSLRAEDTAVYYCARGGGYFDYWGQGTLVTVSS VL: DIQMTQSPSSLSASVGDRVTITCRASQSISLWLNWYQQKPGKAPKLLIYAASTLQSGVPSRFSGSGSGTDFTLTISSLQPEDFATYYCQQYYTSPYTFGQGTKVEIKR
– | – | – | – | – | – | – | – | ~0.4 nM | ~0.7 nM | ~0.7 nM | ~0.7 nM | 0.715 nM | ~0.5 nM | NOV0712-sulfo-SPDB-DM4 (antibody, human IgG1, kappa, V domains shown, sulfo-SPDB-DM4 on primary amines, sites not stated) VH: QVQLLESGGGLVQPGGSLRLSCAASGFTFSSHGMHWVRQAPGKGLEWVSVISGSGSNTGYADSVKGRFTISRDNSKNTLYLQMNSLRAEDTAVYYCARQWGSYAFDSWGQGTLVTVSS VL: DIQMTQSPSSLSASVGDRVTITCRASQSISSYLNWYQQKPGKAPKLLIYAVSTLQSGVPSRFSGSGSGTDFTLTISSLQPEDFATYYCQQSGTFPPTTFGQGTKVEIKR
